Bridge positions count the residues as written; N and C are the ends.
B1: SEQ ID NO:269 (peptide)
peptide: Ac-AGWIECYHPDGICYHFGTGGGK-NH2
modifications: disulfide 6-13 (inferred); also: fluorescein on C-terminal Lys in anisotropy assay only
B2: SEQ ID NO:294 (peptide)
peptide: Ac-GDSRVCWEDSWGGEVCFRYDPGGGK-NH2
modifications: disulfide 6-16 (inferred); also: fluorescein on C-terminal Lys in anisotropy assay only

Molecular target: KDR on human umbilical vein endothelial cells (HUVECs) (human, UniProt P35968 20-1356)
Assay: cell-based or functional assay

KDR on human umbilical vein endothelial cells (HUVECs), sequence (P35968 20-1356): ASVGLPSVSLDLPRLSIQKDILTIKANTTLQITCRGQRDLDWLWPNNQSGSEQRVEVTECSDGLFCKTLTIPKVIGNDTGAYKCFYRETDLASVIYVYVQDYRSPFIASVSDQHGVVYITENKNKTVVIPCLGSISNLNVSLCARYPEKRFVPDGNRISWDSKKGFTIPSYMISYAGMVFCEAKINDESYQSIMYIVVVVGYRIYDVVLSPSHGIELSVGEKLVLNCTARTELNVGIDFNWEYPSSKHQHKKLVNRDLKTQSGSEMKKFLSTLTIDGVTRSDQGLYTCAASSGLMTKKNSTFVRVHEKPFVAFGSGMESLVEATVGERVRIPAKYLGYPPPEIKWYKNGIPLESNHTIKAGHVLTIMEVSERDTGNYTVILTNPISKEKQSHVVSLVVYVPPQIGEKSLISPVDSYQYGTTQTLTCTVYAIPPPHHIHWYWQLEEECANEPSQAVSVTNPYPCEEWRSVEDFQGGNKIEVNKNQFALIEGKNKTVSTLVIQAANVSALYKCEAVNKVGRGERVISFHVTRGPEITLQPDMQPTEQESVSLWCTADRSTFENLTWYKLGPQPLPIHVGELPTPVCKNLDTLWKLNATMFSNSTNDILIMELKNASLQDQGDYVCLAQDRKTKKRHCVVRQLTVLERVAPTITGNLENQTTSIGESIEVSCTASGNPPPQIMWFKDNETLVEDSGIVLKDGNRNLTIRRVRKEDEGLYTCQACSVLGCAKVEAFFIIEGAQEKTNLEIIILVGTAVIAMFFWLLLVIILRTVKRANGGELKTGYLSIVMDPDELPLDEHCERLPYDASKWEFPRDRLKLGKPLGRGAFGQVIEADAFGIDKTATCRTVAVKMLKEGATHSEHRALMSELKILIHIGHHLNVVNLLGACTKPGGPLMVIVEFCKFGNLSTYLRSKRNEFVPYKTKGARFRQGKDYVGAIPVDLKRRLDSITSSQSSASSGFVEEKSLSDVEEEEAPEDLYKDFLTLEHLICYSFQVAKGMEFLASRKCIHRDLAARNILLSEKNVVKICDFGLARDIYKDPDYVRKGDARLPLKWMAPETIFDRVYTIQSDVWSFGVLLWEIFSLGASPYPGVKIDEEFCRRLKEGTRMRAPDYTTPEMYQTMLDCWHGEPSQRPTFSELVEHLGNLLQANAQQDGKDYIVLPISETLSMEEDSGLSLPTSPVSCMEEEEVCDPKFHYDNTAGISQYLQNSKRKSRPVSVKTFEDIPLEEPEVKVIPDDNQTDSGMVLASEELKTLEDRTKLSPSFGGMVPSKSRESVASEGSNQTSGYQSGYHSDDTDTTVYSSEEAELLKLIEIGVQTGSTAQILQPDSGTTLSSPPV

| VEGF-induced KDR phosphorylation in HUVECs (immunoblot) | Binder |
| --- | --- |
| ≥ 50 % inhibition at 10 µM | B1 |
| ≥ 50 % inhibition at 10 µM | B2 |

— patent US20140161732A1 (published 2014)
